B1: IV-17-C Hexanoyl-RYYRWR-NH2 (peptide)
peptide: Hexanoyl-RYYRWR-NH2
SMILES: CCCCCC(=O)N[C@@H](CCCNC(=N)N)C(=O)N[C@@H](Cc1ccc(O)cc1)C(=O)N[C@@H](Cc1ccc(O)cc1)C(=O)N[C@@H](CCCNC(=N)N)C(=O)N[C@@H](Cc1c[nH]c2ccccc12)C(=O)N[C@@H](CCCNC(=N)N)C(N)=O
B2: IV-16-C Propionyl-RYYRWR-NH2 (peptide)
peptide: Propionyl-RYYRWR-NH2
SMILES: CCC(=O)N[C@@H](CCCNC(=N)N)C(=O)N[C@@H](Cc1ccc(O)cc1)C(=O)N[C@@H](Cc1ccc(O)cc1)C(=O)N[C@@H](CCCNC(=N)N)C(=O)N[C@@H](Cc1c[nH]c2ccccc12)C(=O)N[C@@H](CCCNC(=N)N)C(N)=O
notes: see recheck
B3: IV-15-A Butryl-RYYRWR-NH2 (peptide)
peptide: Butyryl-RYYRWR-NH2
SMILES: CCCC(=O)N[C@@H](CCCNC(=N)N)C(=O)N[C@@H](Cc1ccc(O)cc1)C(=O)N[C@@H](Cc1ccc(O)cc1)C(=O)N[C@@H](CCCNC(=N)N)C(=O)N[C@@H](Cc1c[nH]c2ccccc12)C(=O)N[C@@H](CCCNC(=N)N)C(N)=O
B4: IV-18-C Heptanoyl-RYYRWR-NH2 (peptide)
peptide: Heptanoyl-RYYRWR-NH2
SMILES: CCCCCCC(=O)N[C@@H](CCCNC(=N)N)C(=O)N[C@@H](Cc1ccc(O)cc1)C(=O)N[C@@H](Cc1ccc(O)cc1)C(=O)N[C@@H](CCCNC(=N)N)C(=O)N[C@@H](Cc1c[nH]c2ccccc12)C(=O)N[C@@H](CCCNC(=N)N)C(N)=O
notes: see recheck
B5: IV-12-B Ac-RY(D)YR(D)WNH2 (peptide)
peptide: Ac-R[dY]Y[dR]WR-NH2
notes: It is not clear from the print which residues the (D) marks belong to, nor whether the last Arg is missing on purpose
B6: VII-77-A (peptide)
peptide: Ac-RY[Phe(4-NHAc)]RWR-NH2
SMILES: CC(=O)Nc1ccc(C[C@H](NC(=O)[C@H](Cc2ccc(O)cc2)NC(=O)[C@H](CCCNC(=N)N)NC(C)=O)C(=O)N[C@@H](CCCNC(=N)N)C(=O)N[C@@H](Cc2c[nH]c3ccccc23)C(=O)N[C@@H](CCCNC(=N)N)C(N)=O)cc1
notes: also called Ac-Arg-Tyr-Phe(4-NHAc)-Arg-Trp-Arg-NH2
B7: VII-87-B (peptide)
peptide: Ac-R[Tyr(3-Cl)]YRWR-NH2
SMILES: CC(=O)N[C@@H](CCCNC(=N)N)C(=O)N[C@@H](Cc1ccc(O)c(Cl)c1)C(=O)N[C@@H](Cc1ccc(O)cc1)C(=O)N[C@@H](CCCNC(=N)N)C(=O)N[C@@H](Cc1c[nH]c2ccccc12)C(=O)N[C@@H](CCCNC(=N)N)C(N)=O
notes: also called Ac-Arg-Tyr(3-Cl)-Tyr-Arg-Trp-Arg-NH2
B8: VII-79-A (peptide)
peptide: Ac-RY[Phe(4-CH2NH2)]RWR-NH2
SMILES: CC(=O)N[C@@H](CCCNC(=N)N)C(=O)N[C@@H](Cc1ccc(O)cc1)C(=O)N[C@@H](Cc1ccc(CN)cc1)C(=O)N[C@@H](CCCNC(=N)N)C(=O)N[C@@H](Cc1c[nH]c2ccccc12)C(=O)N[C@@H](CCCNC(=N)N)C(N)=O
notes: also called Ac-Arg-Tyr-Phe(4-CH2NH2)-Arg-Trp-Arg-NH2
B9: IV-33-B Hexanoyl-AYYRWR-NH2 (peptide)
peptide: Hexanoyl-AYYRWR-NH2
SMILES: CCCCCC(=O)N[C@@H](C)C(=O)N[C@@H](Cc1ccc(O)cc1)C(=O)N[C@@H](Cc1ccc(O)cc1)C(=O)N[C@@H](CCCNC(=N)N)C(=O)N[C@@H](Cc1c[nH]c2ccccc12)C(=O)N[C@@H](CCCNC(=N)N)C(N)=O
B10: IV-23-B Propionyl-RAYRWR-NH2 (peptide)
peptide: Propionyl-RAYRWR-NH2
SMILES: CCC(=O)N[C@@H](CCCNC(=N)N)C(=O)N[C@@H](C)C(=O)N[C@@H](Cc1ccc(O)cc1)C(=O)N[C@@H](CCCNC(=N)N)C(=O)N[C@@H](Cc1c[nH]c2ccccc12)C(=O)N[C@@H](CCCNC(=N)N)C(N)=O
B11: IV-25-B Propionyl-RYARWR-NH2 (peptide)
peptide: Propionyl-RYARWR-NH2
SMILES: CCC(=O)N[C@@H](CCCNC(=N)N)C(=O)N[C@@H](Cc1ccc(O)cc1)C(=O)N[C@@H](C)C(=O)N[C@@H](CCCNC(=N)N)C(=O)N[C@@H](Cc1c[nH]c2ccccc12)C(=O)N[C@@H](CCCNC(=N)N)C(N)=O
B12: IV-29-B Propionyl-RYYRAR-NH2 (peptide)
peptide: Propionyl-RYYRAR-NH2
SMILES: CCC(=O)N[C@@H](CCCNC(=N)N)C(=O)N[C@@H](Cc1ccc(O)cc1)C(=O)N[C@@H](Cc1ccc(O)cc1)C(=O)N[C@@H](CCCNC(=N)N)C(=O)N[C@@H](C)C(=O)N[C@@H](CCCNC(=N)N)C(N)=O
B13: IV-37-B Hexanoyl-RYARWR-NH2 (peptide)
peptide: Hexanoyl-RYARWR-NH2
SMILES: CCCCCC(=O)N[C@@H](CCCNC(=N)N)C(=O)N[C@@H](Cc1ccc(O)cc1)C(=O)N[C@@H](C)C(=O)N[C@@H](CCCNC(=N)N)C(=O)N[C@@H](Cc1c[nH]c2ccccc12)C(=O)N[C@@H](CCCNC(=N)N)C(N)=O
B14: IV-43-B Hexanoyl-RYYRWA-NH2 (peptide)
peptide: Hexanoyl-RYYRWA-NH2
SMILES: CCCCCC(=O)N[C@@H](CCCNC(=N)N)C(=O)N[C@@H](Cc1ccc(O)cc1)C(=O)N[C@@H](Cc1ccc(O)cc1)C(=O)N[C@@H](CCCNC(=N)N)C(=O)N[C@@H](Cc1c[nH]c2ccccc12)C(=O)N[C@@H](C)C(N)=O
B15: IV-41-B Hexanoyl-RYYRAR-NH2 (peptide)
peptide: Hexanoyl-RYYRAR-NH2
SMILES: CCCCCC(=O)N[C@@H](CCCNC(=N)N)C(=O)N[C@@H](Cc1ccc(O)cc1)C(=O)N[C@@H](Cc1ccc(O)cc1)C(=O)N[C@@H](CCCNC(=N)N)C(=O)N[C@@H](C)C(=O)N[C@@H](CCCNC(=N)N)C(N)=O
B16: IV-21-C Propionyl-AYYRWR-NH2 (peptide)
peptide: Propionyl-AYYRWR-NH2
SMILES: CCC(=O)N[C@@H](C)C(=O)N[C@@H](Cc1ccc(O)cc1)C(=O)N[C@@H](Cc1ccc(O)cc1)C(=O)N[C@@H](CCCNC(=N)N)C(=O)N[C@@H](Cc1c[nH]c2ccccc12)C(=O)N[C@@H](CCCNC(=N)N)C(N)=O
B17: IV-39-B Hexanoyl-RYYAWR-NH2 (peptide)
peptide: Hexanoyl-RYYAWR-NH2
SMILES: CCCCCC(=O)N[C@@H](CCCNC(=N)N)C(=O)N[C@@H](Cc1ccc(O)cc1)C(=O)N[C@@H](Cc1ccc(O)cc1)C(=O)N[C@@H](C)C(=O)N[C@@H](Cc1c[nH]c2ccccc12)C(=O)N[C@@H](CCCNC(=N)N)C(N)=O
B18: IV-27-B Propionyl-RYYAWR-NH2 (peptide)
peptide: Propionyl-RYYAWR-NH2
SMILES: CCC(=O)N[C@@H](CCCNC(=N)N)C(=O)N[C@@H](Cc1ccc(O)cc1)C(=O)N[C@@H](Cc1ccc(O)cc1)C(=O)N[C@@H](C)C(=O)N[C@@H](Cc1c[nH]c2ccccc12)C(=O)N[C@@H](CCCNC(=N)N)C(N)=O
B19: IV-35-B Hexanoyl-RAYRWR-NH2 (peptide)
peptide: Hexanoyl-RAYRWR-NH2
SMILES: CCCCCC(=O)N[C@@H](CCCNC(=N)N)C(=O)N[C@@H](C)C(=O)N[C@@H](Cc1ccc(O)cc1)C(=O)N[C@@H](CCCNC(=N)N)C(=O)N[C@@H](Cc1c[nH]c2ccccc12)C(=O)N[C@@H](CCCNC(=N)N)C(N)=O
B20: IV-31-B Propionyl-RYYRWA-NH2 (peptide)
peptide: Propionyl-RYYRWA-NH2
SMILES: CCC(=O)N[C@@H](CCCNC(=N)N)C(=O)N[C@@H](Cc1ccc(O)cc1)C(=O)N[C@@H](Cc1ccc(O)cc1)C(=O)N[C@@H](CCCNC(=N)N)C(=O)N[C@@H](Cc1c[nH]c2ccccc12)C(=O)N[C@@H](C)C(N)=O

Numbered stars: 1 amine (or outer) side, 2 acyl side, 3 side chain; on linkers, the order of the positions; unused ones are H or OH. Square brackets hold non-standard residues; d marks the D form. * marks the point of attachment. Phe(4-NHAc) = 4-acetamidophenylalanine, CC(=O)Nc1ccc(C[C@H](N[*:1])C(=O)[*:2])cc1; Phe(4-CH2NH2) = NCc1ccc(C[C@H](N)C(=O)O)cc1; Tyr(3-Cl) = N[C@@H](Cc1ccc(O)c(Cl)c1)C(=O)O; Heptanoyl = CCCCCCC(=O)*; Hexanoyl = CCCCCC(=O)*; Propionyl = CCC(=O)*; Butyryl = CCCC(=O)* A value given as a limit tells only on which side of the number the result lay.

The target of one test is T1, human ORL-1 receptor (opioid receptor like 1) (human, UniProt P41146 1-370). Put plainly: cell-based or functional assay.
T1 sequence (P41146 whole entry): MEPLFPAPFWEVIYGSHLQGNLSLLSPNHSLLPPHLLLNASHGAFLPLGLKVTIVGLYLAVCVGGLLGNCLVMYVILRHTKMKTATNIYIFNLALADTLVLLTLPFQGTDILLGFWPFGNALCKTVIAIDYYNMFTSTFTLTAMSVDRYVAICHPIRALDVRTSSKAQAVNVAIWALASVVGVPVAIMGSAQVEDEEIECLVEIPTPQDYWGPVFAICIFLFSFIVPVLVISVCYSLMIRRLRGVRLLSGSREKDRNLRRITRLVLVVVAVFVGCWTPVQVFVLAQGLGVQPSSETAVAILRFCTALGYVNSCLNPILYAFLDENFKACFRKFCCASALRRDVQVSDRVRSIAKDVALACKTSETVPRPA
B1: the “[^35S]GTPγS Binding Percent Stimulation” value came to 18%. In the case of Ac-RYYRWR-NH2 (also called parent peptide) [Ac-RYYRWR-NH2], the “[^35S]GTPγS Binding EC50” value was 1.2 nM and the “[^35S]GTPγS Binding Percent Stimulation” value stood at 100%.

Regarding B2, the “[^35S]GTPγS Binding EC50” value was 22.3 nM and the “[^35S]GTPγS Binding Percent Stimulation” value was determined as 82%. With B3, the “[^35S]GTPγS Binding EC50” value is 35.3 nM and the “[^35S]GTPγS Binding Percent Stimulation” value was found to be 63%. With B4, the “[^35S]GTPγS Binding EC50” value is 16.9 nM and the “[^35S]GTPγS Binding Percent Stimulation” value came out at 54%. On the same counts, the results for B5 are more than 10000 nM and less than 10%.

A further test deals with T1, human ORL-1 receptor (opioid receptor …). Put plainly: cell-based or functional assay. This is another data set of the same source.
In the case of B6, the “% Stimulation of [35S]GTPγS binding” value was 19% and the “EC50 (nM) of stimulation of [35S]GTPγS binding” value turned out to be 115 nM. On the same counts, the results for B7 are 72% and 3.9 nM. Consider B8, for which the “% Stimulation of [35S]GTPγS binding” value was less than 20%.

For another test the target is unchanged. The test can be described thus: [3H]nociceptin displacement at ORL1.
With B1, the IC50 was determined as 2.6 nM. As for Ac-RYYRWR-NH2 (also called parent peptide) [Ac-RYYRWR-NH2], the IC50 was 0.72 nM.

Regarding B2, the IC50 was found to be 1.2 nM. Same read-out and setting: under B3 stands 4.3 nM; under B4, 2.6 nM. The same measure, in the same setting: under B5 stands 1140 nM.

For a further test the target is unchanged. The test can be described thus: binding assay at ORL1 (taken as [3H]nociceptin displacement as in Table 1).
B9 had a half-maximal inhibitory concentration (IC50) of 1020 nM. The same measure, in the same setting: the same measure for B10: 182 nM; for B11: 495 nM; for B12: 1890 nM.

For the molecule B13, the half-maximal inhibitory concentration (IC50) worked out at 79 nM. In the case of B14, the IC50 was determined as 311 nM. Still for that read-out and setting: the same measure for B15: 710 nM; for B16: 1780 nM; for B17: 1000 nM. In the case of B18, the IC50 came to 400 nM. On the same count and under the same terms, the same measure for B19: 113 nM; for B20: 76 nM.

Another test has the same target. The test can be described thus: [3H]nociceptin displacement, membranes of CHO cells transfected with human ORL-1; Ki=IC50/(1+L/Kd). As for the experimental part:
Receptor binding studies were conducted on human ORL1 (opiate receptor like 1) transfected into Chinese hamster ovary (CHO) cells using each of the hexapeptide analog compounds of Table 3. All the compounds were evaluated for binding affinities. […] The data shown in Table 5 represents the average±SEM of at least two experiments conducted in triplicate.
Cells are removed from the plates by scraping with a rubber policeman, and then homogenized in Tris buffer using a Polytron homogenizer. Following this homogenization step, the cellular mixture is centrifuged once and washed by an additional centrifugation at 40,000×g for 15 min. The pellet formed during the centrifugation is re-suspended in 50 mM Tris, pH 7.5. […] Samples of the suspension are then filtered over glass fiber filters using a Wallac cell harvester.
For the data in Table 5, binding was conducted as described above. IC₅₀ values and Hill coefficients were determined using the curve-fitting program Prism. K₁ values were calculated using the equation K₁=IC₅₀/(1+[L]/Kd). […] The data in Table 5 represent the average±SEM of at least two experiments conducted in triplicate.
For the molecule B6, the Ki was 0.88 nM. Turning to B7, the Ki was found to be 0.26 nM. In turn, B8 gave an inhibitory constant (Ki) of 2.54 nM.
